Data reported in patent publication US7414113B2, “Antibody that specifically binds to Candida kefyr Cytosine deaminase” (Onyx Pharmaceuticals, Inc., priority 2002, dated 2008).
Changes are numbered by the printed parent chain. Numbers in names are those of the source. Entries after “also recorded” stand apart in the source; their conditions may differ.

Key:
[1] = test system: transfected cells
Experimental: Cytotoxicity assay—transfected cells were seeded at a density of 1×10^3 cells/well in a 96-well microtiterplate containing 100 μl of culture medium. A set of sterile stock dilutions of the 10 mg/ml 5FC solution were prepared. One day later, increasing concentrations of 5FC was added to the wells, and a control well without the prodrug was included. After 5-7 days, the cells were washed with fresh medium and cytotoxicity was assessed by trypan blue exclusion, using a hemocytometer to quantify the results.

[2] = cited from earlier work
[3] = reference 16, cited from earlier work
[4] = test system: HEK 293 cells; test: Expression of CD constructs, anti-FLAG Western blot of cell lysate; format: cell-based, Human; conditions: transiently transfected HEK 293 cells
Text: Human embryonic kidney cells (HEK 293 cells) were transiently transfected with one of these constructs: CK-CD-FLAG, CK-CD, E-CD-FLAG, E-CD or vector alone (pCMV-tag4C). […] Cells co-transfected with a construct and a GFP containing plasmid indicated approximately equivalent levels of transfection.
The experimental details are as follows: 293 cells in 10 cm dishes were transfected with 10 or 15 ÿg of CD constructs using FuGene® 6 (ROCHE™) at a DNA/FuGene® ratio of 1:3. No carrier DNA was used. Cell lysates were collected in 1 ml of lysis buffer (20 mM Tris-Cl, pH8, 150 mM NaCl, 1% Triton X-100) after 48 hours by three freeze/thaw cycles using dry ice for 10 minutes and room temperature for 10 minutes.
30 μl of cell lysate was separated by 12% SDS-PAGE, transferred to membrane and then Western blotted with anti-flag monoclonal antibody at a dilution of 1:5000 (SIGMA™). The membranes were incubated with HRP conjugated goat-anti-mouse secondary antibody (1:10000, AMERSHAM™) and the signal visualized with an ECL system (AMERSHAM™). […] Similar results were obtained (not shown) when the cells were transfected with 2 μg of each DNA construct. Experiments are planned to test a humanized C. kefyr gene and it is expected that the humanized gene will improve the expression levels.
Because the bacterial protein was more strongly expressed than the yeast protein, an attempt was made to compare the levels for the amount of expression of the two clones. In a second Western blot, 30 μl of CK-CD-FLAG was compared against increasing amounts of E-CD-FLAG. […] In the following experiments, this ratio of cell lysates is used. The presence of a fainter band at about 38 KD may indicate that some portion of the CK-CD protein dimerizes.

[5] = 5FC to 5FU conversion assay at different temperatures (14C, TLC); format: biochemical; conditions: for 5FC to 5FU conversion activity: cell lysate, 2 hour assay, FIG. 10
Experimental: (§1) The plate was then dried and visualized by autoradiography.
In the next experiment, we tested the activity of each enzyme against 5FC. The experiment was performed as described above, but using 5FC in place of cytosine. Further, this experiment was combined with a temperature optimization study and was performed at 4 different temperatures. […] Further, a variant with increased stability can be isolated by screening yeast grown at 37° C., as described in the Examples below.

[6] = cell lysate, 37° C., 16 hour assay, FIG. 9; listed as C. kefyr CD protein
Experimental: The reaction mixtures were loaded onto a TLC plate (LK5DF SILICA GEL, Cat. No. 4856-821, WHATMAN™) and resolved with 1-butanol:H2O (85:15) for 3 hours. The plate was then dried and visualized by autoradiography.
Cell lysates were assayed for cytosine to uracil conversion at 37° C. in a 16 hour assay.

[7] = Activity of CD variants (conversion of 5FC to 5FU); format: biochemical; conditions: mutant tested, versus protein of SEQ ID NO: 2
Text: “Fragments” refers to those polypeptides (or nucleic acid sequences encoding such polypeptides) retaining antigenicity, a structural domain, or an enzymatic activity of the full-length protein. The “enzymatic activity” of the CD protein is herein defined to be the conversion of 5FC to 5FU.
as §1
The specific variants listed in table 2 are synthesized by site specific mutagenesis of SEQ ID NO: 1 or SEQ ID NO: 3. […] Further, changes within the cytidine and deoxycytidylate deaminase zinc-binding region (grey box) are also expected to be less well tolerated than changes outside this region. These residues involve a change in charge as compared with the closest homolog and are in the binding region. Changes in these residues are expected to change function. Active variants are likely to be those that involve conservative changes in those residues not conserved in the 2 yeasts, particularly those outside the binding region.
Variants are expressed in E. coli and screened for activity using the assay described in example 3, or any suitable assay. Alternatively, random mutagenesis is performed and the products are similarly screened. In this manner, it will be possible to isolate variants with improved temperature stability at 37° C. and mutants with even better activity than that described herein.

B1: CD-FUR1 fusion protein: Fusion of Candida kefyr CD and uracil phosphoribosyltransferase (FUR1) (protein)
chain: MAEWDQKGMDKAYEEAAIGYKEGGVPIGGCLIDNLTGEILGSGHNMRFQKGSPTLHGETSTLENAGRLKGSVYKHCTMYTTLSPCDMCTGAILLYGIGRVVIGENVNFKSPGEEYLTSRGVELKVVDDKRCIDIMKEFIEKRPEDWYEDIGEASEPFKNVYLLPQTNQLLGLYTIIRNKNTTRPDFIFYSDRIIRLLVEEGLNHLPVQKQIVETDTNENFEGVSFMGKICGVSIVRAGESMEQGLRDCCRSVRIGKILIQRDEETALPKLFYEKLPEDISERYVFLLDPMLATGGSAIMATEVLIKRGVKPERIYFLNLICSKEGIEKYHAAFPEVRIVTGALDRGLDENKYLVPGLGDFGDRYYCV
expected activity in cytotoxicity assay [1]: increased activity

B2: S. cerevisiae FCY1: Wild type Saccharomyces cerevisiae CD protein, 158 amino acids (protein)
chain: MVTGGMASKWDQKGMDIAYEEAALGYKEGGVPIGGCLINNKDGSVLGRGHNMRFQKGSATLHGEISTLENCGRLEGKVYKDTTLYTTLSPCDMCTGAIIMYGIPRCVVGENVNFKSKGEKYLQTRGHEVVVVDDERCKKIMKQFIDERPQDWFEDIGE
T½ ([2]; measured, reference 16 (value in brackets)): (^161) HR
measured T1/2 ([2]; thermal instability, reference 16): 1 h
Activity % 5FU/5FC by 0.2 μg CD in 2 h [3]: ^1677.9 ± 6.2%
Km [3]: 0.8 mM
Vmax [3]: ^1668.0 ± 12.0 μM/min/μg enzyme

B3: E-CD-FLAG: E. coli cytosine deaminase with FLAG tag (protein, UniProt P25524 2-427, looked up)
Cytosine deaminase: SNNALQTIINARLPGEEGLWQIHLQDGKISAIDAQSGVMPITENSLDAEQGLVIPPFVEPHIHLDTTQTAGQPNWNQSGTLFEGIERWAERKALLTHDDVKQRAWQTLKWQIANGIQHVRTHVDVSDATLTALKAMLEVKQEVAPWIDLQIVAFPQEGILSYPNGEALLEEALRLGADVVGAIPHFEFTREYGVESLHKTFALAQKYDRLIDVHCDEIDDEQSRFVETVAALAHHEGMGARVTASHTTAMHSYNGAYTSRLFRLLKMSGINFVANPLVNIHLQGRFDTYPKRRGITRVKEMLESGINVCFGHDDVFDPWYPLGTANMLQVLHMGLHVCQLMGYGQINDGLNLITHHSARTLNLQDYGIAAGNSANLIILPAENGFDALRRQVPVRYSVRGGKVIASTQPAQTTVYLEQPEAIDYKR
modifications: FLAG tag
expression level [4]: much more strongly expressed than the yeast protein
expression level ([4]; listed as E. coli CD-FLAG): expressed much more efficiently than Candida kefyr CD-FLAG

B4: E-CD: E. coli (bacterial) cytosine deaminase, 427 amino acids (protein, UniProt P25524 2-427, looked up)
Cytosine deaminase: B3 Cytosine deaminase
5FU produced ([5]; 16 hours of reaction (not shown)): as much or more 5FU than the yeast protein
Activity % 5FU/5FC by 0.2 μg CD in 2 h [3]: ^1616.0 ± 0.8%
Km [3]: 17.9 mM
Vmax [3]: ^1611.7 ± 3.8 μM/min/μg enzyme

B5: CK-CD: Wild type Candida kefyr cytosine deaminase protein, 152 amino acids, SEQ ID NO: 2 (protein)
chain: MAEWDQKGMDKAYEEAAIGYKEGGVPIGGCLIDNLTGEILGSGHNMRFQKGSPTLHGETSTLENAGRLKGSVYKHCTMYTTLSPCDMCTGAILLYGIGRVVIGENVNFKSPGEEYLTSRGVELKVVDDKRCIDIMKEFIEKRPEDWYEDIGE
cytosine to uracil conversion activity [6]: far less active against cytosine than was the E. coli CD protein
substrate preference, 5FC versus cytosine [5]: 5FC is a better substrate for C. kefyr CD than is the natural substrate, cytosine
Activity % 5FU/5FC ([5]; by 45 ul cell extract, 2 h): ~50% by 45 ul
5FC to 5FU conversion activity [5]: much more active than CK-CD-FLAG; also recorded: more active against 5FC than the bacterial protein; also recorded: more active against 5FC than is the E. coli CD at 2 hours
5FC to 5FU conversion activity ([5]; listed as C. kefyr CD): much higher in converting 5FC to 5FU
5FC to 5FU conversion activity ([5]; listed as C. kefyr protein): sufficiently active at 37 °C
increased cytotoxicity and bystander effect per unit dose of 5FC compared with the bacteria [1]: up to 10 fold
expression level [4]: significantly lower expression levels than E. coli CD

B6: CK-CD-FLAG: Candida kefyr CD with FLAG tag, with the D33E variation (protein)
chain: B5 chain with D33E
modifications: C-terminal FLAG tag
notes: Candida kefyr CD with FLAG tag, with the D33E variation
5FC to 5FU conversion activity [5]: more active against 5FC than the bacterial protein
Activity [7]: Mutant tested and has less activity
expression level [4]: about ten-fold less well expressed than the E-CD-FLAG
